The text below walks through data of patent publication US7323170.

In this experiment the target is human B7.1, membrane associated (human) (UniProt P33681). Briefly: cell-based or functional assay.
Chain of human B7.1, membrane associated (human) (P33681 35-288): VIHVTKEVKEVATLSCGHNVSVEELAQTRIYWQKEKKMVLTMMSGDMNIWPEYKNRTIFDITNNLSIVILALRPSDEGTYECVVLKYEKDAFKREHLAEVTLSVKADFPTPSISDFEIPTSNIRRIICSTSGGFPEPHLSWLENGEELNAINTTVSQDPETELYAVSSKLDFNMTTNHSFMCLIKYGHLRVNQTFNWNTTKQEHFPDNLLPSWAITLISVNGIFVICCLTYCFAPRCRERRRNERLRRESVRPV

In turn, “murine anti-B7.1 monoclonal antibody L307.4” yielded an inhibition of IL-2 production in mixed lymphocyte reaction (concentration at which inhibitory) of 10 µg/mL.
